Biological target: human CD3 expressed on cells (Jurkat cells; human T-cells of PBMC) (human) (UniProt P09693)
Test: cell-based or functional assay

Sequence of human CD3 expressed on cells (Jurkat cells; human T-cells of PBMC) (human) (chain, as listed by the source, chain 1 of 4): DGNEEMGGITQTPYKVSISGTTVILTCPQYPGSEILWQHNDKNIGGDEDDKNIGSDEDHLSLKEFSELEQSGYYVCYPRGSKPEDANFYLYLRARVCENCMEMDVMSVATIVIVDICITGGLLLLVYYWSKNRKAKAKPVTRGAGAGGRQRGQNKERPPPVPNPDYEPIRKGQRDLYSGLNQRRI
Sequence of human CD3 expressed on cells (Jurkat cells; human T-cells of PBMC) (human) (chain, as listed by the source, chain 2 of 4): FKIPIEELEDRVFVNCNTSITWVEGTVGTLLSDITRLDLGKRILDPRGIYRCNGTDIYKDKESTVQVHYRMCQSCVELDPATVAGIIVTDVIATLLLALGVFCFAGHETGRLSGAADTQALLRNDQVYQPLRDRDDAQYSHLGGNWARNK
Sequence of human CD3 expressed on cells (Jurkat cells; human T-cells of PBMC) (human) (P09693 23-182, chain 3 of 4): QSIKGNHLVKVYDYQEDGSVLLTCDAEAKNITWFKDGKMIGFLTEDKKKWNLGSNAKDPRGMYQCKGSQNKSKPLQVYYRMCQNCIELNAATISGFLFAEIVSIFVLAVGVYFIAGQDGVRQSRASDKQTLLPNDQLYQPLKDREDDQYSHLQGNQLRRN
Sequence of human CD3 expressed on cells (Jurkat cells; human T-cells of PBMC) (human) (P20963 22-164, chain 4 of 4): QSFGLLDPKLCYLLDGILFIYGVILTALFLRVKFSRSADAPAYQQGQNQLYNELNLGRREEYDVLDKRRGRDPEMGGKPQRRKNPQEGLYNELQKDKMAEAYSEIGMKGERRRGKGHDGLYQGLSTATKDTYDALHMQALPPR

B1: H1H5756B (antibody, human IgG1, V domains shown)
VH: EVQLVESGGGVVQPGRSLRLSCTASGFPFSRYGMHWVRQAPGKGLEWVTFIWYDGSNKYYADSAKGRFTITRDNSKNTVYLQMDSLRADDTAVYYCVRDQAALYYFDSWGQGTLVTVSS
VL: DIQMTQSPSSVSASVGDRVTITCRASQGISRWLAWYQQKPGKAPKLLISAASSLQSGVPSRFSGSGSGTDFTLTISGLQPEDFATYYCQKANSFPFTFGPGTKLEIKR
For B1, the U937 Cytotoxicity Human T-cells was 76.9 pM.
